In the supplement of paper PMC7877785:
± gives the uncertainty stated by the source.

Experiment: self-splicing fitness, log relative to wild type (ln ratio); higher = more splicing; Tetrahymena group I intron in knt gene, E. coli kanamycin selection, DiMSum; sequences stand for … in CUCUCU…GGAGGGAAAAGUUAUCAGGCAUGCACCUGGUAGCUAGUCUUUAAACCAAUAGAUUGCAUCGGUUUAAAAGGCAAGACCGUCAAAUUGCGGGAAAGGGGUCAACAGCCGUUCAGUACCAAGUCUCAGGGGAAACUUUGAGAUGGCCUUGCAAAGGGUAUGGUAAUAAGCUGACGGACAUGGUCCUAACCACGCAGCCAAGUCCUAAGUCAACAGAUCUUCUGUUGAUAUGGAUGCAGUUCACAGACUAAAUGUCGGUCGGGGAAGAUGUAUUCUUCUCAUAAGAUAUAGUCGGACCUCUCCUUAAUGGGAGCUAGCGGAUGAAGUGAUGCAACACUGGAGCCGCUGGGAACUAAUUUGUAUGCGAAAGUAUAUUGAUUAGUUUUGGAGUACUCGUGGUCG
Outline: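 Fitness was computed with DiMSum as the error-weighted combination of replicate fold changes, kanamycin versus none, each normalised to wild type. The library randomised all eight intron nucleotides of the P1ex region, with the intron placed in the knt kanamycin-resistance gene on pET-22b(+) in E. coli BL21(DE3). Six replicate transformations were grown overnight at 37°C or 30°C on LB agar with or without 25 μg/mL kanamycin, plus 100 μg/mL carbenicillin, 50 μM IPTG and 0.2% rhamnose. Pooled colonies were amplicon-sequenced on an Illumina HiSeq 2500.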

Sequence | self-splicing fitness (ln) (30 °C) | self-splicing fitness (ln) (37 °C)
GAUCAGCAAUAUUACGGCCU | -1.13 ± 0.22 | -1.18 ± 0.23
CAGAAGCAAUAUUACGCCCU | – | -1.83 ± 0.43
UUGCAGCAAUAUUACGCCGG | -0.957 ± 0.075 | -0.103 ± 0.12
ACCCAGCAAUAUUACGAUGG | -2.94 ± 0.095 | -1.26 ± 0.085
UACUAGCAAUAUUACGCUAC | – | -2.01 ± 0.34
UACAAGCAAUAUUACGGGCU | -4.2 ± 0.34 | -2.82 ± 0.18
GCCCAGCAAUAUUACGGCCG | -1.11 ± 0.28 | –
GUUGAGCAAUAUUACGGUUU | -4.2 ± 0.33 | -2.73 ± 0.32
CUCCAGCAAUAUUACGCUGC | -3.32 ± 0.15 | -2.07 ± 0.21
CCUAAGCAAUAUUACGGCUC | -3.13 ± 0.23 | -1.56 ± 0.21
GAACAGCAAUAUUACGGAAC | -1.44 ± 0.1 | -1.55 ± 0.13
UGAUAGCAAUAUUACGGCGC | -2.62 ± 0.22 | -1.18 ± 0.23
GUUCAGCAAUAUUACGCGCG | -0.45 ± 0.31 | -0.279 ± 0.23
GCACAGCAAUAUUACGCUUU | -0.861 ± 0.055 | -0.0512 ± 0.068
GGCGAGCAAUAUUACGUGCA | -0.905 ± 0.085 | -0.435 ± 0.098
UUAGAGCAAUAUUACGUCAA | -1.59 ± 0.16 | -1.15 ± 0.22
UAAUAGCAAUAUUACGCAUC | -2.08 ± 0.49 | –
GCGUAGCAAUAUUACGCGCU | -3.31 ± 0.2 | -2.84 ± 0.35
ACUUAGCAAUAUUACGCUGA | -2.63 ± 0.49 | –
UUCCAGCAAUAUUACGUGUU | -4.2 ± 0.25 | -2.48 ± 0.21
CCUAAGCAAUAUUACGUCAA | -2.65 ± 0.16 | -3.14 ± 0.21
AGUCAGCAAUAUUACGUGAC | -2.96 ± 0.24 | -2.86 ± 0.2
CGUCAGCAAUAUUACGGAUG | -3.63 ± 0.2 | -1.74 ± 0.14
AGGAAGCAAUAUUACGACUU | 0.00163 ± 0.064 | -0.239 ± 0.084
UAUCAGCAAUAUUACGUAUA | -0.696 ± 0.088 | -0.258 ± 0.1

Sequence | self-splicing fitness (ln) (30 °C) | self-splicing fitness (ln) (37 °C)
GAGCAGCAAUAUUACGUUAG | -2.57 ± 0.16 | -1.93 ± 0.19
CCAAAGCAAUAUUACGGUUG | -1.18 ± 0.062 | -0.628 ± 0.074
UUUGAGCAAUAUUACGCGUG | -2.33 ± 0.14 | -0.742 ± 0.12
CAGUAGCAAUAUUACGAUAA | -3.55 ± 0.47 | –
UUAAAGCAAUAUUACGUAUG | -0.495 ± 0.068 | -0.0669 ± 0.097
UAGUAGCAAUAUUACGUACC | -2.29 ± 0.37 | -1.21 ± 0.27
UGCCAGCAAUAUUACGGGUU | -2.46 ± 0.13 | -2.34 ± 0.12
UCACAGCAAUAUUACGUGAC | -3.26 ± 0.12 | -2.5 ± 0.22
GGCCAGCAAUAUUACGCGGG | -3.29 ± 0.48 | -3.29 ± 0.37
GGUGAGCAAUAUUACGAGAU | – | -2.44 ± 0.24
UGUAAGCAAUAUUACGAGAG | -3.81 ± 0.23 | -1.87 ± 0.25
ACCGAGCAAUAUUACGCAAU | -2.71 ± 0.16 | -2.36 ± 0.32
CCCUAGCAAUAUUACGGGCG | -1.68 ± 0.089 | -0.597 ± 0.1
AUCAAGCAAUAUUACGCGUC | -3.45 ± 0.23 | -1.41 ± 0.16
CACGAGCAAUAUUACGAGCG | -0.857 ± 0.086 | -1.33 ± 0.1
GACUAGCAAUAUUACGCAGG | -3.04 ± 0.17 | -2.17 ± 0.12
GAAUAGCAAUAUUACGGGCA | -1.19 ± 0.083 | -1.2 ± 0.085
UCUCAGCAAUAUUACGUUAU | -2.98 ± 0.095 | -2.8 ± 0.13
AGCGAGCAAUAUUACGCCUA | -1.67 ± 0.18 | -1.89 ± 0.2
CGCCAGCAAUAUUACGUUCA | -2.8 ± 0.12 | -1.86 ± 0.11
GCAAAGCAAUAUUACGCAAU | -3.41 ± 0.13 | -1 ± 0.092
AUACAGCAAUAUUACGCAUG | -1.44 ± 0.094 | -0.421 ± 0.12
CACGAGCAAUAUUACGCAUA | -3.1 ± 0.15 | -2.61 ± 0.18
ACCUAGCAAUAUUACGGGUU | -2.78 ± 0.14 | -1.95 ± 0.14
GAGGAGCAAUAUUACGAACG | -2.65 ± 0.22 | -1.54 ± 0.25

Sequence | self-splicing fitness (ln) (30 °C) | self-splicing fitness (ln) (37 °C)
GGUCAGCAAUAUUACGGUUG | -1.07 ± 0.1 | -0.43 ± 0.12
CUUAAGCAAUAUUACGCUCA | -2.78 ± 0.22 | -2.01 ± 0.5
GAAUAGCAAUAUUACGAACC | 0.0666 ± 0.21 | 0.816 ± 0.24
UUGGAGCAAUAUUACGCAUG | -3.5 ± 0.26 | -0.58 ± 0.13
UACAAGCAAUAUUACGUACU | -2.71 ± 0.14 | -1.45 ± 0.13
AAUGAGCAAUAUUACGAACG | -2.46 ± 0.31 | -1.74 ± 0.3
ACAGAGCAAUAUUACGCGGU | -4.3 ± 0.41 | -2.43 ± 0.28
AGAAAGCAAUAUUACGAUGG | -2.28 ± 0.15 | -3.17 ± 0.35
CAGCAGCAAUAUUACGCUGA | -3.02 ± 0.22 | -2.09 ± 0.18
AGACAGCAAUAUUACGCGAC | -3.41 ± 0.44 | -1.99 ± 0.21
CAUAAGCAAUAUUACGACUA | -1.94 ± 0.095 | -0.427 ± 0.078
CUCCAGCAAUAUUACGAGCG | -2.95 ± 0.16 | -2.56 ± 0.23
CAGCAGCAAUAUUACGCUAU | -2.47 ± 0.27 | -2 ± 0.18
AAUGAGCAAUAUUACGGCUU | -1.85 ± 0.19 | -1.19 ± 0.18
GACGAGCAAUAUUACGGGUA | -3.66 ± 0.2 | -2.94 ± 0.2
AGAGAGCAAUAUUACGACUG | -2.3 ± 0.2 | –
GCAAAGCAAUAUUACGUGCU | -3.46 ± 0.12 | -2.73 ± 0.17
GCUAAGCAAUAUUACGGCGG | -3.78 ± 0.12 | -2.7 ± 0.15
GUCAAGCAAUAUUACGGCUU | -4.12 ± 0.35 | -2.74 ± 0.31
CCCAAGCAAUAUUACGCUUC | -2.84 ± 0.18 | -3.15 ± 0.43
CAGCAGCAAUAUUACGUCGG | -0.346 ± 0.063 | -0.0699 ± 0.09
AGCGAGCAAUAUUACGCCCU | -1.34 ± 0.35 | -0.0906 ± 0.22
CCAAAGCAAUAUUACGGACG | -0.4 ± 0.064 | 0.287 ± 0.091
GAACAGCAAUAUUACGGCCC | -0.734 ± 0.27 | -0.265 ± 0.28
UAAGAGCAAUAUUACGCAGC | -3.16 ± 0.22 | -3.49 ± 0.33

Sequence | self-splicing fitness (ln) (30 °C) | self-splicing fitness (ln) (37 °C)
AUUGAGCAAUAUUACGCUGG | -2.76 ± 0.34 | -1.24 ± 0.25
AUCAAGCAAUAUUACGACUG | -1.59 ± 0.11 | -1.27 ± 0.13
CGAUAGCAAUAUUACGUUUA | – | -2.57 ± 0.21
AGGAAGCAAUAUUACGGUUU | -2.13 ± 0.085 | -0.557 ± 0.1
UCAGAGCAAUAUUACGACCA | -2.73 ± 0.38 | -2.63 ± 0.47
GCUCAGCAAUAUUACGAUGG | -1.05 ± 0.11 | 0.368 ± 0.13
GACCAGCAAUAUUACGUAUU | -0.471 ± 0.049 | -0.139 ± 0.062
CGCUAGCAAUAUUACGGUCG | -2.53 ± 0.1 | -2.03 ± 0.13
UAGUAGCAAUAUUACGGCCA | -1.22 ± 0.26 | 0.0405 ± 0.27
GUGAAGCAAUAUUACGAUCA | -0.337 ± 0.11 | 0.465 ± 0.13
CCCUAGCAAUAUUACGGAUA | – | -2.73 ± 0.26
GCACAGCAAUAUUACGACAC | -0.345 ± 0.078 | 0.29 ± 0.093
CAACAGCAAUAUUACGAUCA | -1.6 ± 0.097 | -1.33 ± 0.12
AUCGAGCAAUAUUACGGCUU | -3.88 ± 0.3 | -2.58 ± 0.29
CGCUAGCAAUAUUACGUCCC | -2.63 ± 0.16 | -1.54 ± 0.19
AUCAAGCAAUAUUACGCUUC | – | -2.01 ± 0.46
GAAAAGCAAUAUUACGGGCA | -0.677 ± 0.086 | -0.191 ± 0.093
CAUGAGCAAUAUUACGGACG | -0.912 ± 0.087 | -0.391 ± 0.11
CAAAAGCAAUAUUACGGCAA | -1.96 ± 0.17 | -0.93 ± 0.14
ACACAGCAAUAUUACGGCGC | -0.533 ± 0.067 | 0.309 ± 0.079
AAGCAGCAAUAUUACGCCUU | -2.42 ± 0.16 | -1.35 ± 0.12
ACCGAGCAAUAUUACGCUGG | -4.24 ± 0.26 | -2.13 ± 0.21
CUCAAGCAAUAUUACGCCUC | -2.98 ± 0.14 | -2.97 ± 0.28
